pKd: −log10 of the molar value. Entries after “also recorded” stand apart in the source; their conditions may differ.
Assays:
[1] = target: tau231P (tau peptide phosphorylated at threonine 231) (Homo sapiens, UniProt P10636); test: ELISA binding to immobilized biotinylated tau231P phosphopeptide; conditions: synthetic phosphopeptide
Protocol: To identify compounds which bind to tau peptides phosphorylated on threonine 231, a 96 well or […] ELISA plate is coated with Neuravidin in 20 mM K2HPO4/10 mM KH2PO4, 1 mM EDTA, 0.8% NaCl, 0.01% NAN3, pH 7.2, using a protein concentration of 5 micrograms per ml. All volumes in ELISA plates are 50 microliters, except for storage, where 200 microliters is added. After coating, plates are incubated with 10 mM tris base, 150 mM NaCl, pH 7.4 CIBS) containing 2% bovine serum albumin (BSA) and stored at 4 °C. Plates prepared this way are stable for several weeks.
A peptide derived from the protein tau was utilized, as shown below: • Biotin-KKVAVR(phospho)TPPKSPSS (SEQ D NO. 1) The peptide was diluted to a concentration of 0.5 micromolar in TBS containing 2% BSA, and 50 microliters per well were added followed by incubation at room temperature for one hour. Unbound peptide is washed off with TBS containing 0.5% Tween 20. […] Bound antibody is detected by incubation with a solution of goat anti-mouse Ig or goat anti-rabbit Ig coupled to horse radish peroxidase (HRP) (2 micrograms per ml in TBS containing 1% BSA) for one hour, and excess antibody is removed by washing with TBS containing 0.05% Tween 20. HRP activity is determined by addition of a substrate capable of generating a colored or fluorescent product (i.e., ABTS Substrate solution (BioRad Laboratories, Hercules, Calif.)). […]

[2] = target: APP668P (APP peptide phosphorylated at threonine 668) (Homo sapiens, UniProt P05067); test: ELISA binding to immobilized biotinylated APP668P phosphopeptide; conditions: synthetic phosphopeptide
Description: It is also possible to practice the method described above using a phosphopeptide corresponding to the sequence of APP. The sequence of one such peptide is shown below: • Biotin-VEVDAAV(phospho)TPEERHLS (SEQ ID NO. 2) In place of the TG3 antibody, a mAb specific for the phosphothreonine 668 of APP is used. The same antibody detection reagents and methods are used as described above. Examples of antibodies useful in this regard include but are not limited to GF1, GF3, GF5, GF7, GF12, GF25, and GF31. Polyclonal antibodies reactive against substantially similar phosphopeptides may also be useful.
Assays have been established in which the tau and APP phosphopeptides are biotinylated and immobilized on Neutravidin-coated 96 well ELISA plates. […] Concentrations of GF31 in the 5 nM range give a robust signal on such plates, and the binding is very sensitive to the presence of an antibody, TG3, which has a high affinity for the tau peptide (FIG. 5B). Duplicate assays are shown in FIG. 5B, illustrating the reproducibility of the assay.

[3] = system: non-phosphorylated tau and APP peptides; test: Binding to the respective non-phosphorylated tau and APP peptides
[4] = target: tau peptide incorporating the phosphorylated threonine 231 site (tau231P), Biotin-KKVAVVR(phospho)TPPKSPSS; test: estimated from other studies, method not described

Substance	binding / recognition of tau231P phosphopeptide [1]	binding / recognition of APP668P phosphopeptide [2]	binding to the respective non-phosphorylated peptides [3]	pKd [4]
Pin1: prolyl isomerase which binds phosphorylated serine/threonine-proline bonds in proteins	high affinity; also recorded: binds	high affinity; also recorded: binds	does not bind	–
monoclonal antibody TG3	–	–	–	7.60
